Tests used:
[1] = target: T1, human IGSF11 (VSIG3) expressed on the surface of cells (human, UniProt Q5DX21 23-431); assay: FACS on DMS 273 cells treated with IGSF11 siRNA (KD: target knocked down, specificity control)
T1 construct: one molecule for all cell lines; the cell line is named under assay; also called IGSF11-expressing cells; HEK-OE
T1 sequence: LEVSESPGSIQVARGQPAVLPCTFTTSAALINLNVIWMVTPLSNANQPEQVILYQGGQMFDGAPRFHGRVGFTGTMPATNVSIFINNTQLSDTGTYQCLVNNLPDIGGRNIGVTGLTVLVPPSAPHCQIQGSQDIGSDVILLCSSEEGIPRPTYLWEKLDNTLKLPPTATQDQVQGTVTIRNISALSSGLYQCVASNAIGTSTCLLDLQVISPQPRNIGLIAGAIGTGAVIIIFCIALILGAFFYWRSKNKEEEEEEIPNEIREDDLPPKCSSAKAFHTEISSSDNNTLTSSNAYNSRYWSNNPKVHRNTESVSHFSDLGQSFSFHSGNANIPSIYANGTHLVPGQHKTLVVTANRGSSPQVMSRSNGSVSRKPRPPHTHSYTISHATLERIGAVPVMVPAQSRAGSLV

[2] = target: T1, human IGSF11 (VSIG3) expressed on the …; assay: FACS on M579-A2-luc cells treated with scrambled control siRNA (SC)
CL-11 (C) [3] = assay: FACS on CL-11 cells (do not express IGSF11; negative cell line) treated with IGSF11 siRNA (KD)
[4] = target: T1, human IGSF11 (VSIG3) expressed on the …; assay: FACS on DMS 273 cells treated with scrambled control siRNA (SC)
[5] = target: T1, human IGSF11 (VSIG3) expressed on the …; assay: FACS on M579-A2-luc cells treated with IGSF11 siRNA (KD: target knocked down, specificity control)
CL-11 (C) [6] = assay: FACS on CL-11 cells (do not express IGSF11; negative cell line) treated with scrambled control siRNA (SC)
[7] = target: T1, human IGSF11 (VSIG3) expressed on the …; assay: FACS, IgG1 format, recombinant HEK cells expressing IGSF11 (HEK-OE)
[8] = target: T2, extracellular domain (ECD) of human IGSF11 (VSIG3), HIS-tagged (human, UniProt Q5DX21 23-241, biotinylated in the ELISA of Example 4 (site not stated)); assay: ELISA, coated IGSF11-HIS, IgG1 format; EC50 grade (* >1 nM, ** 0.05-1 nM, *** 0.02-0.05 nM, **** <0.02 nM)
T2 construct: also called HIS-IGSF11; IGSF11-HIS; not shown: HIS6 tag
T2 sequence: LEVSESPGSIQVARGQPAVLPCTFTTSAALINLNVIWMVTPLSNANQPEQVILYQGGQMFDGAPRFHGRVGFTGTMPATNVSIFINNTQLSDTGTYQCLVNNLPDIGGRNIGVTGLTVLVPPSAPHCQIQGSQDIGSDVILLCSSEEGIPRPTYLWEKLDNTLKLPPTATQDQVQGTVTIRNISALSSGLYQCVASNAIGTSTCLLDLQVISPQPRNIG

[9] = target: T3, IGSF11 (VSIG3), construct used in SPR and BLI not stated (UniProt Q5DX21 23-241, limits assumed); assay: SPR (Biacore), IgG1 format; IGSF11 construct not stated
T3 sequence (looked up): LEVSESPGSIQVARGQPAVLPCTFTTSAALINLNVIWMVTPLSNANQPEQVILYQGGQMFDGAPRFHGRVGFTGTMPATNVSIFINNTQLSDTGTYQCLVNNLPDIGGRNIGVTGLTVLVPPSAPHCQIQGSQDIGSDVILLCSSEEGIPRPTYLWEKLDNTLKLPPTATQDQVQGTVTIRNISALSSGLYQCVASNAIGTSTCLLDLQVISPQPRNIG

[10] = target: T4, extracellular domain (ECD) of murine IGSF11, biotinylated (mouse, UniProt P0C673 23-240, biotinylated (site not stated)); assay: ELISA, scFv; RFU grade (*** >1.0, ** 0.5-1.0, * 0.1-0.5)
T4 construct: also called Mouse IGSF11; murine IGSF11 protein
T4 sequence: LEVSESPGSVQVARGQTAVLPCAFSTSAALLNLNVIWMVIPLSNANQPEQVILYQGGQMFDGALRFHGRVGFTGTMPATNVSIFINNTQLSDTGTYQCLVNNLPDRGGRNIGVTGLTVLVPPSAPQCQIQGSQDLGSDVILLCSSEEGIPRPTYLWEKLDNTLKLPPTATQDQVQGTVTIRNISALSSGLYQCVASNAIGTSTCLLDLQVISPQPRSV

[11] = target: T5, extracellular domain (ECD) of human IGSF11 (VSIG3), biotinylated (human, UniProt Q5DX21 23-241, biotinylated (site not stated)); assay: as above
T5 construct: also called human IGSF11 protein
T5 sequence: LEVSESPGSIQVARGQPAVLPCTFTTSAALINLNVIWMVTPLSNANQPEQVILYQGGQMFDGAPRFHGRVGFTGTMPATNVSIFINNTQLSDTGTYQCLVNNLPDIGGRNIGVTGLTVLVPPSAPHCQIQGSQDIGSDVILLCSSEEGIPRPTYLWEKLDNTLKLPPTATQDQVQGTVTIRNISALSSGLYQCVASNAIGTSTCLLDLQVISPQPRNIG

B1: A-015 (human IgG1 format) (antibody, V domains shown)
VH: not shown
VL: QPVLTQSPSASASLGASVKLTCTLSSGHTNYAIAWRQQQPGKAPRYLMLLNSDGSHTRGGGIPDRFSGSSSGAERYLTISSLQSEDEADYYCMIWHNNAWVFGGGTKLAVL
notes: human IgG1 format
Q: For B1, which percentage binding [1] is on record?
A: 1.6%

Q: And the percentage binding [2]?
A: 1.17%

Q: And the percentage binding (CL-11 (C) [3])?
A: 2.91%

Q: What about the percentage binding [4] of the same binder?
A: 5.97%

Q: And the percentage binding [5]?
A: 1.3%

Q: And the percentage binding (CL-11 (C) [6])?
A: 1.95%

B2: A-026 (human IgG1 format) (antibody, V domains shown)
VH: QVQLQESGPGLVKPSQTLSLTCTVSGGSISSGGYYWSWIRQHPGKGLEWIGYIYYSGSTYYNPSLKSRVTISVDTSKNQFSLKLSSVTAADTAVYYCASWSLGTSNHGWFDPWGQGTLVTVSS
VL: QSVLTQPPSASGTPGQRVTISCSGSSSNIGSNTVNWYQQLPGTAPKLLISDNNNRPSGVPDRFSGSKSGTSASLAITGLQAEDEADYYCQSYDSNLSGWVFGGGTKLTVL
notes: human IgG1 format
Q: What does the source list for B2?
A: percentage binding [1]: 3.81%; percentage binding [2]: 11.6%; percentage binding (CL-11 (C) [3]): 3.47%; percentage binding [4]: 64.4%; EC50 [7]: > 50 nM; percentage binding [5]: 2.01%; percentage binding (CL-11 (C) [6]): 3.6%

B3: A-004 (human IgG1 format) (antibody, V domains shown)
VH: EVQLVESGGGLVKPGGSLRLSCAASGFTFSSYSMNWVRQAPGKGLEWVSSISSSSSYIYYADSVKGRFTISRDNAKNSLYLQMNSLRAEDTAVYYCARGQLLWFGESALIDAFDIWGQGTMVTVSS
VL: EIVLTQSPSSLSASVGDRVTITCRASQSISSYLNWYQLKPGKAPKLLIYAASILQSGVPSRFSGSGSGTDFTLTISSLQPEDFAAYYCQQSYSTPRTFGQGTKLEIK
notes: human IgG1 format
Q: What does the source list for B3?
A: EC50 [8]: < 0.02 nM; Kd [9]: 100 to 250 nM

B4: A-035 (human IgG1 format) (antibody, V domains shown)
VH: QVQLVQSGAEVKKPGASVKVSCKASGYTFTGYYMHWVRQAPGQGLEWMGWINPNSGNTGYAQKFQGRVTMTRNTSISTAYMELSSLRSEDTAVYYCARGRLERGYWYFDLWGRGTLVTVSS
VL: NFMLTQPHSVSESPGRTVTISCTRSSGSITSNYVQWYQQRPGSAPTILIYEDKERPSEVPDRFSGSIDISSNSASLTISGLKTEDEADYYCQSYGGTSQGVLFGGGTKVTVL
notes: human IgG1 format
Q: How did the EC50 [8] turn out when B4 was run?
A: 0.02 to 0.05 nM

Q: What about the EC50 [7] of the same binder?
A: > 50 nM

B5: A-010 (human IgG1 format) (antibody, V domains shown)
VH: QVQLVQSGAEVKKPGASVKVSCKASGYTFTSYGISWVRQAPGQGLEWMGWISAYNGNTNYAQKLQGRVTMTTDTSTSTAYMELRSLRSDDTAVYYCARVPAWSGQFDYWGQGTLVTVSS
VL: QSALTQPASVSGSPGQSITISCTGSSSDVGGYNYVSWYQQYPGKAPKLMIYDVRSRPSGVSNRFSGSKSGNTASLTISGLQAEDEADYYCTSYTSSNTLVIFGGGTKVTVL
notes: human IgG1 format
Q: Which EC50 [8] does the source give for B5 here?
A: < 0.02 nM

B6: A-001 (human IgG1 format) (antibody, V domains shown)
VH: EVQLVESGGGLVKPGGSLRLSCAASGFTFSSYSMNWVRQAPGKGLEWVSSISSSSSYIYYADSVKGRFTISRDNAKNSLYLQMNSLRAEDTAVYYCVRSIIVQALGITSVFDIWGQGTMVTVSS
VL: AIRLTQSPSSLSASVGDRVTISCRASQIISNHLNWYQQKPGKAPKLLIYAASRLQTGVPSRFSGSGSETDYTLTISSLQPEDFATYYCQQSYSNPRTFGHGTKVEIK
notes: human IgG1 format
Q: With B6 as the binder, how does the EC50 [8] read?
A: < 0.02 nM

B7: A-023 (human IgG1 format) (antibody, V domains shown)
VH: QVQLVQSGAEVKKPGSSVKVSCKASGGTFSSYAISWVRQAPGQGLEWMGGIIPIFGTANYAQKFQGRVTITADESTSTAYMELSSLRSEDTAVYYCARPKYSSGWFYYYGMDVWGQGTTVTVSS
VL: QSVLTQPPSVSAAPGQKVTISCSGSSSNIGNNYVSWYQQLPGTAPKLLIYDNNKRPSGIPDRFSGSKSGTSATLGITGLQTGDEADYYCGTWDSSLSVVFGGGTKLTVL
notes: human IgG1 format
Q: How did the EC50 [8] turn out when B7 was run?
A: 0.05 to 1 nM

B8: A-025 (human IgG1 format) (antibody, V domains shown)
VH: QVQLVQSGAEVKKPGSSVKVSCKASGGTFSSYAISWVRQAPGQGLEWMGGIIPIFGTANYAQKFQGRVTITADESTSTAYMELTSLRSEDTAVYYCARGGWLRQNWFDPWGQGTLVTVSS
VL: SSELTQDPAVSVALGQTVRITCQGDSLRSYYASWYQQKPGQAPVLVIYGKNNRPSGIPDRFSGSSSGNTASLTITGAQAEDEADYYCNSRDSSGNHPRVFGGGTKLTVL
notes: human IgG1 format
Q: For B8, which EC50 [8] is on record?
A: 0.05 to 1 nM

B9: A-033 (human IgG1 format) (antibody, V domains shown)
VH: QVQLVQSGAEVKKPGASVKVSCKASGYTFTSYGISWVRQAPGQGLEWMGWISAYNGNTNYAQKLQGRVTMTTDTSTSTAYMELRSLRSDDTAVYYCARDHSIVGATTFDYWGQGTLVTVSS
VL: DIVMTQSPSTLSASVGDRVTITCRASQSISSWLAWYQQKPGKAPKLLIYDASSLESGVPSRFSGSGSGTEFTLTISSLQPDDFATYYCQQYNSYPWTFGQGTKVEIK
notes: human IgG1 format
Q: For B9, which EC50 [8] is on record?
A: 0.02 to 0.05 nM

B10: A-003 (human IgG1 format) (antibody, V domains shown)
VH: VQLVQSGAEVKKPGSSVKVSCKASGGTFSSYAISWVRQAPGQGLEWMGGIIPIFGTANYAQKFQGRVTITADESTSTAYMELSSLRSEDTAVYYCASPRIQLWAAGGFDYWGQGTLVTVSS
VL: QSALTQPASVSGSPGQSITISCTGTSSDVGGYNLVSWYQQHPGKAPKLMIYDVSNRPSGVSNRFSGSKSGNTASLTISGLQAEDEADYYCSSFTTSTTLVFGGGTKLTVL
notes: human IgG1 format
Q: Which EC50 [8] does the source give for B10 here?
A: 0.05 to 1 nM

B11: A-008 (human IgG1 format) (antibody, V domains shown)
VH: QLQLQESGPGLVKPSETLSLTCTVSGGSISSSGYYWGWIRQPPGKGLEWIGSIYYSGSTYYNPSLKSRVTISVDTSKNQFSLKLSSVTAADTAVYYCARHRVRFGEFDAFDIWGQGTMVTVSS
VL: QAVLTQPPSVSGAPGERVTLSCTGTSSNVGADFDVHWYQQFPGTAPRLLIFGSDNRPSGVPDRFSGSKSGTSASLAITGLQVEDEADYYCQAYDVRLSGWVFGGGTKLTVL
notes: human IgG1 format
Q: For B11, which EC50 [8] is on record?
A: 0.02 to 0.05 nM

B12: A-009 (human IgG1 format) (antibody, V domains shown)
VH: QVQLVQSGAEVKKPGSSVKVSCKASGGTFSSYAISWVRQAPGQGLEWMGGIIPIFGTANYAQKFQGRVTITADESTSTAYMELSSLRSEDTAVYYCARGRGFGELYFDYWGQGTLVTVSS
VL: ETTLTQSPATLSVSPGERATLSCRASQGVRSNIAWYQQKPGQAPRLLIYDSSTRATGIPARFSGSGSGTEFTLTISSLQSEDFAVYSCQQYKNWPRTFGQGTKVEIK
notes: human IgG1 format
Q: For B12, which EC50 [8] is on record?
A: 0.05 to 1 nM

B13: A-016 (human IgG1 format) (antibody, V domains shown)
VH: QVQLQESGAEVKKPGASVKVSCKASGYTFTGYYMHWVRQAPGQGLEWMGGIIPIFGTANYAQKFQGRVTITADESTSTAYMELSSLRSEDTAVYYCAGAGMELTRSGAYYYYGMDVWGQGTTVTVSS
VL: QSALTQPASVSGSPGQSITISCTGTSSDIGGYTFVSWYQQHPGKAPKVMIHDVNNRPSGISNRFSGSKSGNTASLTISGLQAEDEADYYCSSVTSTNTYVFGTGTKVTVL
notes: human IgG1 format
Q: How did the EC50 [8] turn out when B13 was run?
A: < 0.02 nM

B14: A-029 (human IgG1 format) (antibody, V domains shown)
VH: QVQLVQSGAEVKKPGSSVKVSCKASGGTFSSYAISWVRQAPGQGLEWMGGIIPIFGTANYAQKFQGRVTITADESTGTAYMELSSLRSEDTAVYYCARSYYYYYGMDVWGQGTTVTVSS
VL: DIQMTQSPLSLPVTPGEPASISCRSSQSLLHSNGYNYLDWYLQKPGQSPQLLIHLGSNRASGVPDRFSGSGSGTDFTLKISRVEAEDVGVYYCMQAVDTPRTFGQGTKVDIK
notes: human IgG1 format
Q: With B14 as the binder, how does the EC50 [8] read?
A: 0.05 to 1 nM

B15: A-029 (scFv format) (scFv, V domains shown)
VH: QVQLVQSGAEVKKPGSSVKVSCKASGGTFSSYAISWVRQAPGQGLEWMGGIIPIFGTANYAQKFQGRVTITADESTGTAYMELSSLRSEDTAVYYCARSYYYYYGMDVWGQGTTVTVSS
VL: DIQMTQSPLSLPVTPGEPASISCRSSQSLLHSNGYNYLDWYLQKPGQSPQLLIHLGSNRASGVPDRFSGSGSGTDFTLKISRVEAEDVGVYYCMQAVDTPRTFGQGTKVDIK
notes: scFv
Q: With B15 as the binder, how does the “relative fluorescent units (RFU), ELISA” value [10] read?
A: 0.1 to 0.5 rfu

Q: What about the “relative fluorescent units (RFU), ELISA” value [11] of the same binder?
A: 0.1 to 0.5 rfu
